{"source": "patent US6531312", "proteins": {"B1": {"name": "6his-Chk1 (protein)", "chain": "MAVPFVEDWDLVQTLGEGAYGEVQLAVNRVTEEAVAVKIVDMKRAVDCPENIKKEICINKMLNHENVVKFYGHRREGNIQYLFLEYCSGGELFDRIEPDIGMPEPDAQRFFHQLMAGVVYLHGIGITHRDIKPENLLLDERDNLKISDFGLATVFRYNNRERLLNKMCGTLPYVAPELLKRREFHAEPVDVWSCGIVLTAMLAGELPWDQPSDSCQEYSDWKEKKTYLNPWKKIDSAPLALLHKILVENPSARITIPDIKKDRWYNKPLKKGAKRPRVTSGGVSESPSGFSKHIQSNLDFSPVNSASSEENVKYSSSQPEPRTGLSLWDTSPSYIDKLVQGISFSQPTCPDHMLLNSQLLGTPGSSQNPWQRLVKRMTRFFTKLDADKSYQCLKETCEKLGYQWKKSCMNQVTISTTDRRNNKLIFKVNLLEMDDKILVDFRLSKGDGLEFKRHFLKIKGKLIDIVSSQKIWLPAT"}, "B2": {"name": "GST-Cdc25C (protein)", "chain": "MSTELFSSTREEGSSGSGPSFRSNQRKMLNLLLERDTSFTVCPDVPRTPVGKFLGDSANLSILSGGTPKRCLDLSNLSSGEITATQLTTSADLDETGHLDSSGLQEVHLAGMNHDQHLMKCSPAQLLCSTPNGLDRGHRKRDAMCSSSANKENDNGNLVDSEMKYLGSPITTVPKLDKNPNLGEDQAEEISDELMEFSLKDQEAKVSRSGLYRSPSMPENLNRPRLKQVEKFKDNTIPDKVKKKYFSGQGKLRKGLCLKKTVSLCDITITQMLEEDSNQGHLIGDFSKVCALPTVSGKHQDLKYVNPETVAALLSGKFQGLIEKFYVIDCRYPYEYLGGHIQGALNLYSQEELFNFFLKKPIVPLDTQKRIIIVFHCEFSSERGPRMCRCLREEDRSLNQYPALYYPELYILKGGYRDFFPEYMELCEPQSYCPMHHQDHKTELLRCRSQSKVQEGERQLREQIALLVKDMSP"}}, "key": {"[1]": {"target": "T1, GST-Cdc25C, P30307", "T1 chain": "B2 chain"}, "[2]": {"target": "6his-Cdc2, P06493", "sequence (P06493 whole entry, looked up)": "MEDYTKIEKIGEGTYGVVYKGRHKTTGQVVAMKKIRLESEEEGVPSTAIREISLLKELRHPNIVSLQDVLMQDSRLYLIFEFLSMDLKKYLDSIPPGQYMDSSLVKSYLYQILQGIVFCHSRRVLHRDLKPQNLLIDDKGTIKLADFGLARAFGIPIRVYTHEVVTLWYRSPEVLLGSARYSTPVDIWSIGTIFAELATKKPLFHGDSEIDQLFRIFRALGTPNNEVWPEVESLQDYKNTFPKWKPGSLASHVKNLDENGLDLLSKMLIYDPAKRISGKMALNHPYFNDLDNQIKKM"}}, "data": [{"protein": "B1", "values": [{"measurement": "GST-Cdc25 phosphatase activity (loss of slower migrating phosphorylated forms of Cdc2 on gel)", "setting": "[1]", "value": "Prior phosphorylation of GST-Cdc25 by 6his-Chk1 leads to a dosedependent reduction in GST-Cdc25 activity"}, {"measurement": "phosphorylation of GST-Cdc25 (32P ATP, SDS-PAGE, autoradiography)", "setting": "[1]", "value": "GST-Cdc25 was phosphorylated by 6his-Chk1 and by 6his-hCDS1"}]}, {"protein": "B2", "values": [{"measurement": "dephosphorylation of Cdc2 (gel-mobility analysis)", "setting": "[2]", "value": "GST-Cdc25 catalyses a reduction in the slower migrating phosphorylated forms of Cdc2"}]}]}
